Laboratory results as given in the nanobody polyreactivity screen of Harvey et al. (2022).

Assay: yeast display, Sf9 membrane polyspecificity reagent, FACS + sequencing; frameworks hold sequencing errors
In short: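 Galactose induction of a Saccharomyces cerevisiae BJ5465 synthetic nanobody display library ran 36–48 hours. The cells were then stained for 1 hour at 4 °C with 10% biotinylated, detergent-solubilized Sf9 membrane reagent, pulled down on streptavidin microbeads and FACS-sorted into low and high (top ~1%) gates on expression and reagent-binding fluorescence. Labels for polyreactivity follow the gate of origin.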

| Sequence | polyreactivity (PSR sort gate) |
| --- | --- |
| QVQLVDSGGGLVQAGGSLRLSCAASGFSLSINAMGWYRQAPGKERELVDGISWSGGSTYYADSVKGRFTISRDNAKTTFYLQMNSLKTEDTAVYYCNADLFLFVYFGQYYWRTYNYWGQGTQVTVSS | low polyreactivity |
| QVQLVDSGGGLVQAGGSLRLSCAASGFTFTRYAMGWYRQAPGKERELVADITRGGSTNYADSVKARFTISRDNAKNTVYLQMNSLKPEDTAVYYCNAGAITNYDYCGQGTQVTVSS | high polyreactivity |
| QVQLVDSGGGLVQAGGSLRLSCAASGFTFYSYAMGWYRPAPGKERELFAAISKSGGRSYYADSVKGRFTISRDNAKNTVYLQMKSLKPEDTGVYYCNTYGAFRSLETYDYWGQGSQVTVSS | high polyreactivity |
| QVQLVDSGGGLVQAGGSLRLSCAASGFTIYANAMGWYRQAPGKERELVAAITSSSGRTYYADSVKGRFTISRDNAKNTVYLQMNSLIPEETAVYYCAARWSPYDYWGQGTQVTVSS | low polyreactivity |
| QVQLVDSGGGLVQAGGSLRLSCAASGIIFVENAMGWYRQAPGKEREMVAAISWDGGSTYYADSVKGRFTISRDNAKNTVYLQMNSLKPEDTAVYYCAADLTISYSQEYYYWGQGTQVTVSS | low polyreactivity |
| QVQLVDSGGGLVQAGGSLRLSCAASGIISIVYAMGWYRQAPGKERELVAAISSGGSTYYADSVKGRFTISRDNAKNTVYLQMNRLKPEDTAVYYCATAYRYPPNAYFQRMDSWGQGTQVTVSS | high polyreactivity |
| QVQLVDSGGGLVQAGGSLRLSCAASGITFKRYAMGWYRQAPGKERELVAAITGIGGSTYYADSVKGRFTISSDNAKNTVYLQMNSLKPEDTAVYYCAARNNKKYDYWGQGTQVTVSS | high polyreactivity |
| QVQLVDSGGGLVQAGGSLRLSCAASGITFSWYAMGWYRQAPGKERELVAAITRNGGSTYYADSVKGRFTISRDNAKNTVYLLMNSLKPEDTAVYYCNARKKYENYYWGQGTQVTVSS | high polyreactivity |
| QVQLVDSGGGLVQAGGSLRLSCAASGITITEYAMGWYRQAPGKERELVAVISSVGTMYYADSVKGRFTISRDNAKNTVYFQMNSLKPEDTAVYYCAADYSDDGEYPYWSGSDYWGQGTQVTVSS | low polyreactivity |
| QVQLVDSGGGLVQAGGSLRLSCAASGLIFGYYDMGWYRQAPGKERELVAAITTGDSTYYADSVKGRFTISRDNAKNTVYLQMTCLKPEDSAVYYCSAYAFWYYESDYWGKGTQVTVSS | low polyreactivity |
| QVQLVDSGGGLVQAGGSLRLSCAASGLIFSQYAMGWYRQAPGKEREFVARISSSGGSTYYADSVKGRFTISRDNAKNTVYLQMNSLKPEDTAVYYCAAVGGRNIRVWFRNKYDSWGQGTQVTVSS | low polyreactivity |
| QVQLVDSGGGLVQAGGSLRLSCAASGLIFTYYAMGWYRQAPGKERELVAAINYSGGSTYYADSVKGRFTISRDNAKNSVYLQMNSLKPEDTAVYYCAARRVTQTEGPMGYWGQGTQVTVSS | low polyreactivity |
| QVQLVDSGGGLVQAGGSLRLSCAASGLTFIRYAMGWYRQAPGKERELVAAITRGGTRTYYADSVKGRFTISRDNAKNTVYLQMNSLKPEDTAVYYCAALSRYGRFDYWGQGTQVTVSS | high polyreactivity |
| QVQLVDSGGGLVQAGGSLRLSCAASGLTFSKYAMGWYRQAPGKERELVSAISRSGGSTYYADSVKGRFTISRDNAKNTVYLQMNSLKPEDTAVYYCAARRLVGAERPGYDYWGQGTQVTVSS | high polyreactivity |
| QVQLVDSGGGLVQAGGSLRLSCAASGNIFRANAMGWYRQAPGKERELVAAIRWRGVGTYYADSVKGRFTISRDYAKNTVYLQINSLKPEDTAVYYCAAYVKTGAYDYWGQGTLVTVSS | high polyreactivity |
| QVQLVDSGGGLVQAGGSLRLSCAASGNTFRIYAMAWYRQAPGKERELVAAISQSGGSTYYADSVKGRFTISRDNAKNTVYLQMNSLKPEDTAVYYCAATGARRKFYYWGQGTQVTVSS | high polyreactivity |
| QVQLVDSGGGLVQAGGSLRLSCAASGRIFHVYAMGWYRKAPGKERELLADITWSGGSTYYADSVKGRFTISRDNAKNTVYLQMNSLKPEDTAVYYCAAAYYGYARWRGPRKMDYWGQGTQVTVSS | high polyreactivity |
| QVQLVDSGGGLVQAGGSLRLSCAASGRIFRYYAMGWYRQAPGKERELVAGINQSGGSTYYADSVKGRFTISRDNAKNTVYLQMNSLKPEDTAVYYCAAKVSWPKYDYWGQGTQVTVSS | low polyreactivity |
| QVQLVDSGGGLVQAGGSLRLSCAASGRIFSRYAMGWYRQAPGKERELVASISYSGGSTNYADSVKGRFTISRDNAKNTFYLQMNSLKPEDTAVYYCAAGQYSYRRRYNYWGQGTQVTVSS | high polyreactivity |
| QVQLVDSGGGLVQAGGSLRLSCAASGRIFYRYAMGWYRQAPGKERELVATISRGGITNYADSVKGRFTISRDNAKNTVYLEMNSLKPEDTAVYYCNAVYGFRRLFEYEYDYWGQGTQVTVSS | high polyreactivity |
| QVQLVDSGGGLVQAGGSLRLSCAASGRNFNEYAMGWSRPAPGKERELVAAISSSGDSTYYADSVKGRFTISRDNAKNTVYLQMNSLKPEDTAVYYGAAQVVVWYPYVYFPGSDYWGQGTQVTVSS | low polyreactivity |

| Sequence | polyreactivity (PSR sort gate) |
| --- | --- |
| QVQLVDSGGGLVQAGGSLRLSCAASGRTFGKNVMGWYREAPGKERELVAAISLSGGSTYYADSVKGRFTISRDNAKNTVYLQMNSLKPEDTAVYYCAAAAYGKPWGLDYWGQGTQVTVSS | low polyreactivity |
| QVQLVDSGGGLVQAGGSLRLSCAASGRTFKPYTMGWYRQAPGKERDLVAAISARGVSTYYADSVKGRFTISRDNAKNTGYLQMNSLKPEDTAVYYCNRVYFIGYRVFPPPMDYWGQGTQVTVSS | high polyreactivity |
| QVQLVDSGGGLVQAGGSLRLSCAASGRTFNLYAMGWYRQAPGKERELVATIDWTGGSTYYADSVKGRFTISRDNAKNTVYLQMNSLKPEDTAVYYCNADRFADYDYWGQGTQVTVSS | low polyreactivity |
| QVQLVDSGGGLVQAGGSLRLSCAASGRTFRYYAMGSYRQAPGKERELVAAISGRGGSTYYADSVKGRFTISRDNAKNTVYLLMNSLKPADTAVYYCAKRGYYRSRRYDYWGQGTQVTVSS | high polyreactivity |
| QVQLVDSGGGLVQAGGSLRLSCAASGRTFSANAMGWYRQAPGKERELVAGITSRGGGTYYADSVKGRFTISRDNAKNTVYLQMNSLKTEDTAVYYGAKASRYWSLYYWGQGTQVTVSS | high polyreactivity |
| QVQLVDSGGGLVQAGGSLRLSCAASGRTFYGNAMGWYRQAPGKARELVAAINRDGGTYYADSVKGRFTISRDNAKNTVYLQMNSLKPEDTAVYYCNAVKRGIRYGYWGQGTQVTVSS | high polyreactivity |
| QVQLVDSGGGLVQAGGSLRLSCAASGRTFYPYVMGWYRQPPGKERELVADISWSGGRTYYADSVKGRFTISRDNAKNTVYLQMNSLKPEDTAVYYCAAGYRRRYNYWGQGTQVTVSS | high polyreactivity |
| QVQLVDSGGGLVQAGGSLRLSCAASGRTIGINPMGWYRQAPGKERELVASITRSVGSTYDADSVKGRFTISRDNAKNTVYLQMNSLKPEDTEVYYCAAEYYTWSYYTKYYYWGQGTQVTVSS | high polyreactivity |
| QVQLVDSGGGLVQAGGSLRLSCAASGRTIPYYAMGWYRQAPGKERELVAAISSSGGRTYYADSVKGRFTISRDNAKNTVYLQMNSLKPEDTAVYYCNVDAWYPYQGFLVGYYYWGQGTQVTVSS | low polyreactivity |
| QVQLVDSGGGLVQAGGSLRLSCAASGRTIWRNAMGWYRQAPGKERELVAAIRWSGGRTYADSVKGRFTISRDKAKNTVYLQMNILKPEDTAVYYCNARGLSDWTLKLDYWGQGTQVTVSS | low polyreactivity |
| QVQLVDSGGGLVQAGGSLRLSCAASGRTIYNYDMGWYRQAPGKERELVARIFSGGSTNYADSVKGRFTISRDNAKNTVYLQMNSLKPEDTAVYYCNAVLESQFIGWKFFYWGQGTQVSVSS | high polyreactivity |
| QVQLVDSGGGLVQAGGSLRLSCAASGSIFGSYAMGWYRQAPGKERELVAGISGRGGSTYYADSVKGRFTISRDNAKNTVYLQMNSLKPEDTAVYYCAAGRRNGWLIPHYYWGQGTQVTVSS | high polyreactivity |
| QVQLVDSGGGLVQAGGSLRLSCAASGSIFGYYAMGWYRQAPGKERELVAAINSGSSTNYADSVKGRFTISRDNAKNTVYLQMNSLKPEDTAVYYCNKDPWYVFHPRGLFLFDYWGQGTQVTVSS | low polyreactivity |
| QVQLVDSGGGLVQAGGSLRLSCAASGSIFIINAKGWYRQSPGKERELVAAINSGGSTKYADSVKGRFTISRDNAKNTVYLQMNSLKPEDTAVYYCNAGSRPTAGGMDSWGQGTQVTVSS | low polyreactivity |
| QVQLVDSGGGLVQAGGSLRLSCAASGSIFQRYAMGWYRQAPGKERELVAGINWSGGRTYYADSVKGRFTISRDNAKNTVYLQMNSLKPEDTAVYYCAAARYTRYDYWGQGTQVTVSS | high polyreactivity |
| QVQLVDSGGGLVQAGGSLRLSCAASGSIFSYYAMGWYRPAPGTERELVAGLSWGGGRTYYADSVKGRFTISRDNAKNTVYLQMNSLKQEDTAVYYCAARLTGLDYWGQGTQVTVSS | high polyreactivity |
| QVQLVDSGGGLVQAGGSLRLSCAASGSIFTYNGKVWYRQAPGKEREFVAAITWTGGSTYADSVKGRFTISSDNSNNTVYLQMNSLKREDTAVYYCAAVRRISWYTPVNTRRYYYWGQGTQVTVSS | high polyreactivity |
| QVQLVDSGGGLVQAGGSLRLSCAASGSIIGLYAMGWYRQAPGKERELVAAITTTGGSTYYADSVKGRFTISRDNAKNTVYLQMNSLKPEDTAVYYCNADYVAYGPEYDYWGQGTQVTVSS | low polyreactivity |
| QVQLVDSGGGLVQAGGSLRLSCAASGSITYYAMGWYRQAPGKERELVAAISSSGGSTYYADSVKGRFTISRDNAKNTVYLQMNSLKPEDTAVYYCAAYGRYGAHTGYGSWGQGTQVTVSS | high polyreactivity |
| QVQLVDSGGGLVQAGGSLRLSCAASGSTFPNNAMGRYRQAPGKERELVAAITTRGGSTYYADSVKGRFTISRDNAKNTVYLQMNSLKAEDTAVYYCAKRRRSAAPKYDYWGQGTQVTVSS | high polyreactivity |
